Consider two molecules from article PMC5876120 (2019).

Sequences and labels used below:
B1: Caspr2 ECD (protein)
chain: APSTSQKCDEPLVSGLPHVAFSSSSSISGSYSPGYAKINKRGGAGGWSPSDSDHYQWLQVDFGNRKQISAIATQGRYSSSDWVTQYRMLYSDTGRNWKPYHQDGNIWAFPGNINSDGVVRHELQHPIIARYVRIVPLDWNGEGRIGLRIEVYGCSYWADVINFDGHVVLPYRFRNKKMKTLKDVIALNFKTSESEGVILHGEGQQGDYITLELKKAKLVLSLNLGSNQLGPIYGHTSVMTGSLLDDHHWHSVVIERQGRSINLTLDRSMQHFRTNGEFDYLDLDYEITFGGIPFSGKPSSSSRKNFKGCMESINYNGVNITDLARRKKLEPSNVGNLSFSCVEPYTVPVFFNATSYLEVPGRLNQDLFSVSFQFRTWNPNGLLVFSHFADNLGNVEIDLTESKVGVHINITQTKMSQIDISSGSGLNDGQWHEVRFLAKENFAILTIDGDEASAVRTNSPLQVKTGEKYFFGGFLNQMNNSSHSVLQPSFQGCMQLIQVDDQLVNLYEVAQRKPGSFANVSIDMCAIIDRCVPNHCEHGGKCSQTWDSFKCTCDETGYSGATCHNSIYEPSCEAYKHLGQTSNYYWIDPDGSGPLGPLKVYCNMTEDKVWTIVSHDLQMQTPVVGYNPEKYSVTQLVYSASMDQISAITDSAEYCEQYVSYFCKMSRLLNTPDGSPYTWWVGKANEKHYYWGGSGPGIQKCACGIERNCTDPKYYCNCDADYKQWRKDAGFLSYKDHLPVSQVVVGDTDRQGSEAKLSVGPLRCQGDRNYWNAASFPNPSSYLHFSTFQGETSADISFYFKTLTPWGVFLENMGKEDFIKLELKSATEVSFSFDVGNGPVEIVVRSPTPLNDDQWHRVTAERNVKQASLQVDRLPQQIRKAPTEGHTRLELYSQLFVGGAGGQQGFLGCIRSLRMNGVTLDLEERAKVTSGFISGCSGHCTSYGTNCENGGKCLERYHGYSCDCSNTAYDGTFCNKDVGAFFEEGMWLRYNFQAPATNARDSSSRVDNAPDQQNSHPDLAQEEIRFSFSTTKAPCILLYISSFTTDFLAVLVKPTGSLQIRYNLGGTREPYNIDVDHRNMANGQPHSVNITRHEKTIFLKLDHYPSVSYHLPSSSDTLFNSPKSLFLGKVIETGKIDQEIHKYNTPGFTGCLSRVQFNQIAPLKAALRQTNASAHVHIQGELVESNCGASPLTLSPMSSATDPWHLDHLDSASADFPYNPGQGQAIRNGVNRNSA
B2: contactin-2 ECD (protein)
chain: SQTTFGPVFEDQPLSVLFPEESTEEQVLLACRARASPPATYRWKMNGTEMKLEPGSRHQLVGGNLVIMNPTKAQDAGVYQCLASNPVGTVVSREAILRFGFLQEFSKEERDPVKAHEGWGVMLPCNPPAHYPGLSYRWLLNEFPNFIPTDGRHFVSQTTGNLYIARTNASDLGNYSCLATSHMDFSTKSVFSKFAQLNLAAEDTRLFAPSIKARFPAETYALVGQQVTLECFAFGNPVPRIKWRKVDGSLSPQWTTAEPTLQIPSVSFEDEGTYECEAENSKGRDTVQGRIIVQAQPEWLKVISDTEADIGSNLRWGCAAAGKPRPTVRWLRNGEPLASQNRVEVLAGDLRFSKLSLEDSGMYQCVAENKHGTIYASAELAVQALAPDFRLNPVRRLIPAARGGEILIPCQPRAAPKAVVLWSKGTEILVNSSRVTVTPDGTLIIRNISRSDEGKYTCFAENFMGKANSTGILSVRDATKITLAPSSADINLGDNLTLQCHASHDPTMDLTFTWTLDDFPIDFDKPGGHYRRTNVKETIGDLTILNAQLRHGGKYTCMAQTVVDSASKEATVLVRGPPGPPGGVVVRDIGDTTIQLSWSRGFDNHSPIAKYTLQARTPPAGKWKQVRTNPANIEGNAETAQVLGLTPWMDYEFRVIASNILGTGEPSGPSSKIRTREAAPSVAPSGLSGGGGAPGELIVNWTPMSREYQNGDGFGYLLSFRRQGSTHWQTARVPGADAQYFVYSNESVRPYTPFEVKIRSYNRRGDGPESLTALVYSAEEEPRVAPTKVWAKGVSSSEMNVTWEPVQQDMNGILLGYEIRYWKAGDKEAAADRVRTAGLDTSARVSGLHPNTKYHVTVRAYNRAGTGPASPSANATTMKPPPRRPPGNISWTFSSSSLSIKWDPVVPFRNESAVTGYKMLYQNDLHLTPTLHLTGKNWIEIPVPEDIGHALVQIRTTGPGGDGIPAEVHIVRNGGTSMMVEN

The assay “contactin-2 ECD” deals with B2. Description: solid phase binding assay.
The assay “Caspr2 ECD” deals with B1. Description: solid phase binding assay.

In general, Kd refers to the free concentration of one partner at which half of the binding sites on the other are occupied at equilibrium, for simple one-to-one binding. Turning to B1, binding in the assay with contactin-2 ECD was characterised by a dissociation constant (Kd) of 12 nM. In the case of B2, in the assay with Caspr2 ECD, binding was characterised by a dissociation constant (Kd) of 15 nM.
